Laboratory results reported in publication PMC2423479.

Biological target: Pgc ORF1, (His)6-tagged, 71-residue oligopeptide encoded by Drosophila polar granule component (pgc) ORF1 (Drosophila melanogaster)
Experiment: SEC; refolded (His)6-tagged Pgc ORF1 on a size-exclusion column; two species migrating at 18 kDa and 36 kDa; dimer to monomers; column and buffer not stated

stoichiometry N: 2
Substance: Pgc ORF1, (His)6-tagged, 71-residue oligopeptide encoded by Drosophila polar granule component (pgc) ORF1 (natural protein)
